Measured values taken from patent US20260116921A1, “PEPTIDE INHIBITORS OF INTERLEUKIN-23 RECEPTOR AND THEIR USE TO TREAT INFLAMMATORY DISEASES” (priority 2018, published 2026).
Bridge positions count the residues as written; N and C are the ends. Square brackets hold non-standard residues; d marks the D form. Trp(7-Me) = Cc1cccc2c(C[C@H](N)C(=O)O)c[nH]c12; 2Nal = N[C@@H](Cc1ccc2ccccc2c1)C(=O)O; AEF = NCCOc1ccc(C[C@H](N)C(=O)O)cc1; Cit = NC(=O)NCCC[C@H](N)C(=O)O; Pen = CC(C)(S)[C@H](N)C(=O)O; αMeK = C[C@](N)(CCCCN)C(=O)O; Abu = CC[C@H](N)C(=O)O; βAla = NCCC(=O)O

B1: SEQ ID NO: 208 (peptide)
peptide: XNTXQXXXXKLX
modifications: Ac-[Pen]-NT-[W(7-Me)]-Q-[Pen]-Phe[4-(2-aminoethoxy)]-[2-Nal]-[a-MeLeu]-[Lys(Ac)]-L-[bA]-NH2; Pen-Pen disulfide
B2: SEQ ID NO: 273 (peptide)
peptide: XNTXKXXXXEXX
modifications: Ac-[Pen]-N-T-[W(7-Me)]-[Lys(Ac)]-[Pen]-Phe[4-(2-aminoethoxy)]-[2-Nal]-[a-MeLys]-E-[bA]-[bA]-NH2; Pen-Pen disulfide
B3: SEQ ID NO: 272 (peptide)
peptide: XNTXKXXXXKHX
modifications: Ac-[Pen]-N-T-[W(7-Me)]-[Lys(Ac)]-[Pen]-Phe[4-(2-aminoethoxy)]-[2-Nal]-[a-MeLys]-[Lys(Ac)]-H-[bA]-NH2; Pen-Pen disulfide
B4: SEQ ID NO: 234 (peptide)
peptide: XNTXXXXXXKNX
modifications: Ac-[Pen]-NT-[W(7-Me)]-[a-MeLys]-[Pen]-Phe[4-(2-aminoethoxy)]-[2-Nal]-[a-MeLeu]-[Lys(Ac)]-N-[bA]-NH2; Pen-Pen disulfide
B5: SEQ ID NO: 238 (peptide)
peptide: Ac-[Pen][Cit]T[Trp(7-Me)]Q[Pen][AEF][2Nal][αMeK]K(Ac)N[βAla]-NH2
modifications: disulfide 1-6
SMILES: CC(=O)NCCCC[C@H](NC(=O)[C@](C)(CCCCN)NC(=O)[C@H](Cc1ccc2ccccc2c1)NC(=O)[C@H](Cc1ccc(OCCN)cc1)NC(=O)[C@H]1NC(=O)[C@H](CCC(N)=O)NC(=O)[C@H](Cc2c[nH]c3c(C)cccc23)NC(=O)[C@H]([C@@H](C)O)NC(=O)[C@H](CCCNC(N)=O)NC(=O)[C@@H](NC(C)=O)C(C)(C)SSC1(C)C)C(=O)N[C@@H](CC(N)=O)C(=O)NCCC(N)=O
B6: SEQ ID NO: 232 (peptide)
peptide: XNTXQXXXXKNX
modifications: Ac-[Pen]-NT-[W(1-Me)]-Q-[Pen]-Phe[4-(2-aminoethoxy)]-[2-Nal]-[a-MeLys]-[Lys(Ac)]-N-[bA]-NH2; Pen-Pen disulfide
B7: SEQ ID NO: 282 (peptide)
peptide: XNTXQXXXXENX
modifications: Ac-[Pen]-N-T-[W(7-Me)]-Q-[Pen]-Phe[4-(2-aminoethoxy)]-[2-Nal]-[a-MeLys]-E-N-[bA]-NH2; Pen-Pen disulfide
B8: SEQ ID NO: 239 (peptide)
peptide: XKTXQXXXXKNX
modifications: Ac-[Pen]-[Lys(Ac)]-T-[W(7-Me)]-Q-[Pen]-Phe[4-(2-aminoethoxy)]-[2-Nal]-[a-MeLys]-[Lys(Ac)]-N-[bA]-NH2; Pen-Pen disulfide
B9: SEQ ID NO: 207 (peptide)
peptide: XNTXQXXXXKAX
modifications: Ac-[Pen]-NT-[W(7-Me)]-Q-[Pen]-Phe[4-(2-aminoethoxy)]-[2-Nal]-[a-MeLeu]-[Lys(Ac)]-A-[bA]-NH2; Pen-Pen disulfide
B10: SEQ ID NO: 214 (peptide)
peptide: XNTXQXXXXKHX
modifications: Ac-[Pen]-NT-[W(7-Me)]-Q-[Pen]-Phe[4-(2-aminoethoxy)]-[2-Nal]-[a-MeLeu]-[Lys(Ac)]-H-[bA]-NH2; Pen-Pen disulfide
B11: SEQ ID NO: 236 (peptide)
peptide: XNTXQXXXXXNX
modifications: Ac-[Pen]-NT-[W(7-Me)]-Q-[Pen]-Phe[4-(2-aminoethoxy)]-[2-Nal]-[a-MeLys]-[Aib]-N-[bA]-NH2; Pen-Pen disulfide
B12: SEQ ID NO: 226 (peptide)
peptide: XNTXQXXXXKXX
modifications: Ac-[Pen]-NT-[W(7-Me)]-Q-[Pen]-Phe[4-(2-aminoethoxy)]-[2-Nal]-[a-MeLeu]-[Lys(Ac)]-[bA]-[bA]-NH2; Pen-Pen disulfide
B13: SEQ ID NO: 203 (peptide)
peptide: RXQTXQCXXXENX
modifications: Ac-[(D)Arg]-Abu-Q-T-[W(7-Me)]-Q-C-Phe[4-(2-aminoethoxy)]-[2-Nal]-[THP]-E-N-[bA]-NH2; Abu-Cys thioether
B14: SEQ ID NO: 221 (peptide)
peptide: XNTXQXXXXKSX
modifications: Ac-[Pen]-NT-[W(7-Me)]-Q-[Pen]-Phe[4-(2-aminoethoxy)]-[2-Nal]-[a-MeLeu]-[Lys(Ac)]-S-[bA]-NH2; Pen-Pen disulfide
B15: SEQ ID NO: 271 (peptide)
peptide: XNTXKXXXXKSX
modifications: Ac-[Pen]-N-T-[W(7-Me)]-[Lys(Ac)]-[Pen]-Phe[4-(2-aminoethoxy)]-[2-Nal]-[a-MeLys]-[Lys(Ac)]-S-[bA]-NH2; Pen-Pen disulfide

What follows are binders tested against T1, IL-23R (human, UniProt Q5VWK5 24-629) (assay: cell-based or functional assay).
T1 sequence (looked up): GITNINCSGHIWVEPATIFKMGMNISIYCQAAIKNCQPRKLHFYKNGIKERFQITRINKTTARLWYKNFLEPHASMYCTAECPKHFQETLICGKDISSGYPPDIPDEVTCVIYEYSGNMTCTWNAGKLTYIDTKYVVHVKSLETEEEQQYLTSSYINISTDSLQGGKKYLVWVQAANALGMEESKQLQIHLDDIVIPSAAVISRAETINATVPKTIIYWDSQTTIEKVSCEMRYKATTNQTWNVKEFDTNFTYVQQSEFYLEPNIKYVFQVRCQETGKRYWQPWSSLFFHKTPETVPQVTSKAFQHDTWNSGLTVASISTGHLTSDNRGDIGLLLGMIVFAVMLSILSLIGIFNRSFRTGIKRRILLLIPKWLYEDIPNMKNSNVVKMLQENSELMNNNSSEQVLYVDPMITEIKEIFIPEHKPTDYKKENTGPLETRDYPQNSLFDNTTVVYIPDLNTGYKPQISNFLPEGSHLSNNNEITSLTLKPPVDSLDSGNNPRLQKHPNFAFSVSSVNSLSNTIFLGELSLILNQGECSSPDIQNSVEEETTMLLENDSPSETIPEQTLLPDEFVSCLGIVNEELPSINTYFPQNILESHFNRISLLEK

NK Cell Assay (nM) IC50, < 10 nM:
Ac-[dR][Abu]QT[Trp(7-Me)]K(Ac)C[AEF][2Nal][αMeK]K(Ac)N[dK]-NH2 (thioether 2-7) [SEQ ID NO: 324]
B1
B2
B3
B4
B5
B6
B7
B8
B9
B10
B11
B12
Ac-[Pen]NT[Trp(7-Me)]K(Ac)[Pen][2Nal][2Nal][αMeK]K(Ac)N[dL]-NH2 (disulfide 1-6 (inferred)) [SEQ ID NO: 289]
B13
B14
B15
